Measurements: patent publication US20200087347 (published 2020)
[ ]: non-standard residue; d: D form. NMeK = CN[C@@H](CCCCN)C(=O)O

How the values were obtained:
Test in all cases: competition
integrin αvβ6 = target: T1, integrin αvβ6 (human, UniProt P06756)
T1 chain 1: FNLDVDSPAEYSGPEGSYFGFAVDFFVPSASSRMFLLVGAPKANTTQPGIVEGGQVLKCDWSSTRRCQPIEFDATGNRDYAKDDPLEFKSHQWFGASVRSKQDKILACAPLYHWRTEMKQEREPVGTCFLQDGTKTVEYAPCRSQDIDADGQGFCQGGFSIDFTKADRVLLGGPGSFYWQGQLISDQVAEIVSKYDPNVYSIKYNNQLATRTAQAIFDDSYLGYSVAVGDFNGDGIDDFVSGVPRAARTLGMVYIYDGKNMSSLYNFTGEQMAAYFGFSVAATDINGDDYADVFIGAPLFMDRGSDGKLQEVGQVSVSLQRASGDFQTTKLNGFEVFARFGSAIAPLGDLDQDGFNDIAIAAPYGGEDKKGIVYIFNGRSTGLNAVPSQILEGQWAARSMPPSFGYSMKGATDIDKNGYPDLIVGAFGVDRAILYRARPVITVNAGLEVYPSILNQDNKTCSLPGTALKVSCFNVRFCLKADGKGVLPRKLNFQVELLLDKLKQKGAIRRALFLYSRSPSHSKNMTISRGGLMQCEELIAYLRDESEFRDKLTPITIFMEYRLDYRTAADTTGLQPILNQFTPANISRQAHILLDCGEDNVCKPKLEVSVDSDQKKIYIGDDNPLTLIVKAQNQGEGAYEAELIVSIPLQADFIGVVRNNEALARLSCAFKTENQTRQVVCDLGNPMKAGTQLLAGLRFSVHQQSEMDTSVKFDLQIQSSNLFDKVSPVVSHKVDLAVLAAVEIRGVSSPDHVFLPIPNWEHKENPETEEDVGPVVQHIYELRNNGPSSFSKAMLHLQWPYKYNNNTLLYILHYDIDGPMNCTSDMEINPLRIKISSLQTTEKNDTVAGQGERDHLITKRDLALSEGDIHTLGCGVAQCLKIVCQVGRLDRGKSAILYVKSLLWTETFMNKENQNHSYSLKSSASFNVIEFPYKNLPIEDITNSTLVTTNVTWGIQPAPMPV
T1 chain 2: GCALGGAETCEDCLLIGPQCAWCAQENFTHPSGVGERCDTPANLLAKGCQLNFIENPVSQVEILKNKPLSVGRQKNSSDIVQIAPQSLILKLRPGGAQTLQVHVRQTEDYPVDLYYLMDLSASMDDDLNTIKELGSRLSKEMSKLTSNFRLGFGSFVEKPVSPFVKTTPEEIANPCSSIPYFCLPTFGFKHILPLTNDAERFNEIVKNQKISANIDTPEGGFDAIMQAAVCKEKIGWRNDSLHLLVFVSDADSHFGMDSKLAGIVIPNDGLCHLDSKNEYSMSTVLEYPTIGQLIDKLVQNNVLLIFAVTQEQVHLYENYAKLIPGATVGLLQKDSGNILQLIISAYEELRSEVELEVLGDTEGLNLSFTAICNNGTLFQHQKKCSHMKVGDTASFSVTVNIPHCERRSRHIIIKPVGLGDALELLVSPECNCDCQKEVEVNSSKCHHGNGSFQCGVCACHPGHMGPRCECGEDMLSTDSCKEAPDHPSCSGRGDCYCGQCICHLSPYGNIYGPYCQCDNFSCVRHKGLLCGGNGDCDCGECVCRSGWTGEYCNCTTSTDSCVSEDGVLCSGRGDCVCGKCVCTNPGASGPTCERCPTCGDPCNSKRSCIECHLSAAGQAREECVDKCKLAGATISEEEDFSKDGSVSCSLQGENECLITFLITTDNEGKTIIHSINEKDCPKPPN

integrin αvβ5 = target: T2, integrin αvβ5 (human, UniProt P06756)
T2 chain 1: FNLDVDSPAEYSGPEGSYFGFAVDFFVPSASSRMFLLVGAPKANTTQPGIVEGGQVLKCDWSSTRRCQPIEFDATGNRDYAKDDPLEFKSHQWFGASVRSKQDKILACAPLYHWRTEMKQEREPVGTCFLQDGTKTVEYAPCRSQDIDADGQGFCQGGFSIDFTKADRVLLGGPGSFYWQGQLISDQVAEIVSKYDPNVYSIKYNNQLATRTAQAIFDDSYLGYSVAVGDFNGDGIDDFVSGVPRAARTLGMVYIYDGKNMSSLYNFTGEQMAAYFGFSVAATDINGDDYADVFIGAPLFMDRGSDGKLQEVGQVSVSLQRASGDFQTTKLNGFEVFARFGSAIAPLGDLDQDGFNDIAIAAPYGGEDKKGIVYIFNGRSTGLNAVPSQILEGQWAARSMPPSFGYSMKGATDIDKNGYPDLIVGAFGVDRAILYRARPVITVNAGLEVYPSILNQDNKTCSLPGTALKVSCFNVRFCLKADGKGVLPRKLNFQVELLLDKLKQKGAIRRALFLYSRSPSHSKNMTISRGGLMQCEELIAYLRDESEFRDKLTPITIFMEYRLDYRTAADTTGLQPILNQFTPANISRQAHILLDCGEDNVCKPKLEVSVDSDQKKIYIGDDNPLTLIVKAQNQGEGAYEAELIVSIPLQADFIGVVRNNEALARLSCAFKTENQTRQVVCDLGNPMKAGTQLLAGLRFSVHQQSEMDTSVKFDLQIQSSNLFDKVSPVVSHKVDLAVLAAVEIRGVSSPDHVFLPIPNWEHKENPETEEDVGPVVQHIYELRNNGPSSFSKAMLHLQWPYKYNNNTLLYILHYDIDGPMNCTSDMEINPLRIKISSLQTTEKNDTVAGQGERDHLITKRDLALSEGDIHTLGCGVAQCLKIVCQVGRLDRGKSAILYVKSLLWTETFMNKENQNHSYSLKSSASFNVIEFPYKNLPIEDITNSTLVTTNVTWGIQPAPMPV
T2 chain 2: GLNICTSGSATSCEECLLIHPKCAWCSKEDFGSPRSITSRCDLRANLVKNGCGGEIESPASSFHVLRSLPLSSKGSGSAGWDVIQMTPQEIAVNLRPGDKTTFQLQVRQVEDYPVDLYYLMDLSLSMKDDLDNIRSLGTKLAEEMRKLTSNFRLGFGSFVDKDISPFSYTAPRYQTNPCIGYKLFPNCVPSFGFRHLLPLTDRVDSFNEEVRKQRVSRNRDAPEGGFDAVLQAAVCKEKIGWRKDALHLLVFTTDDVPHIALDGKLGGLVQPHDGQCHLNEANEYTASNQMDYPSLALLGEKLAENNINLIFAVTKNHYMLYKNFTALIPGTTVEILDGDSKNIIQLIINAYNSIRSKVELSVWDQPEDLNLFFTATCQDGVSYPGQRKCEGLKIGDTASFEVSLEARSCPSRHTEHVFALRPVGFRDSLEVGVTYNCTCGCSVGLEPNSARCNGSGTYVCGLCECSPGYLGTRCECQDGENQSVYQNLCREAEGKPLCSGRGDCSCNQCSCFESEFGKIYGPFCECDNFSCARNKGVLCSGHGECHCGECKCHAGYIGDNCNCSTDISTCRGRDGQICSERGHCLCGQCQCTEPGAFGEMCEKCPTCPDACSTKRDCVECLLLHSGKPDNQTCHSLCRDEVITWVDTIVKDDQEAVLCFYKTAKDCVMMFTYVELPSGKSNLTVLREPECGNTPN

integrin αvβ3 = target: T3, integrin αvβ3 (human, UniProt P06756)
T3 chain 1: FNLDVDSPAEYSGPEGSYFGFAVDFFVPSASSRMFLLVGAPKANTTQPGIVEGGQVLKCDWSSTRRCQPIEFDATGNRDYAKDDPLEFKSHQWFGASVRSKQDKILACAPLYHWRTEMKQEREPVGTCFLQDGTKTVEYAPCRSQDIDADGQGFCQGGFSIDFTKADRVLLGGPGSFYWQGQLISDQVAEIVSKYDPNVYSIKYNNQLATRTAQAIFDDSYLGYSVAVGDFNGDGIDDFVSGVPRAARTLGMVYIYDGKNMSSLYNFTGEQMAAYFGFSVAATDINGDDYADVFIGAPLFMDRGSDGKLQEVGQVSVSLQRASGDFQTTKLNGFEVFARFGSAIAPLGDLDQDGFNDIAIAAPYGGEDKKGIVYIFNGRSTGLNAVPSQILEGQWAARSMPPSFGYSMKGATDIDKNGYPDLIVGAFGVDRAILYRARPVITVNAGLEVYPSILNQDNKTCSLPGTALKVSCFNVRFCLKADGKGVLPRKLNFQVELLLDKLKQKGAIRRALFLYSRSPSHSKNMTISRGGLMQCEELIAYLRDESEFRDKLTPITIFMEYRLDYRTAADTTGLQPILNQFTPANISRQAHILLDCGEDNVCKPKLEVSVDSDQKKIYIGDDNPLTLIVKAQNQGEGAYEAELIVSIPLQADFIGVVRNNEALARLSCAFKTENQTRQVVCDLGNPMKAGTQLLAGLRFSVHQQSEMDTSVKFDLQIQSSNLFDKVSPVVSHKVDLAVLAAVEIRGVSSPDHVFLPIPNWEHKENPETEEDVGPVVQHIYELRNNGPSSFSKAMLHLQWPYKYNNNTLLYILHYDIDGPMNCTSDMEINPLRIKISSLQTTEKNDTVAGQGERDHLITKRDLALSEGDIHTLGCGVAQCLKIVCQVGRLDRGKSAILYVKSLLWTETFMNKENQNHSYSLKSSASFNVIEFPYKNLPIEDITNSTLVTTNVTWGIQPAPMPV
T3 chain 2: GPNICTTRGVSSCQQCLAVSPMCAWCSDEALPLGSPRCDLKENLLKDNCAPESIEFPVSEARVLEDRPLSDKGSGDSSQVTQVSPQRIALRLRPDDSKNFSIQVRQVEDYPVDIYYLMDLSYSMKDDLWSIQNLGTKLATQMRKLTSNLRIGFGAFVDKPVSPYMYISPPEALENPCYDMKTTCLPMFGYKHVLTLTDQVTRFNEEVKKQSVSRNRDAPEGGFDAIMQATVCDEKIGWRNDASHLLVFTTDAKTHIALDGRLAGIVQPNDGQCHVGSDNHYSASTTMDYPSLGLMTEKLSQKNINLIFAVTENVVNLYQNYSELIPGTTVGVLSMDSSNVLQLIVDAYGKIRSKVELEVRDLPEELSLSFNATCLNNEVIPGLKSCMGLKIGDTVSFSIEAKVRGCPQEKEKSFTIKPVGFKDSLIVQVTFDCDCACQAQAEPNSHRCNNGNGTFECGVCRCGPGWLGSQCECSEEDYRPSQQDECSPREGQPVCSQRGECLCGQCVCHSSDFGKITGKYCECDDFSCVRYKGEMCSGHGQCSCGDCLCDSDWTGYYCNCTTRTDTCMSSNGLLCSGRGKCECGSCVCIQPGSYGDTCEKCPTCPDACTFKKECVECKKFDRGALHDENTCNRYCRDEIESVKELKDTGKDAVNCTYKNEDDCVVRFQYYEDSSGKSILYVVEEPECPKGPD

integrin αvβ8 = target: T4, integrin αvβ8 (human, UniProt P06756)
T4 chain 1: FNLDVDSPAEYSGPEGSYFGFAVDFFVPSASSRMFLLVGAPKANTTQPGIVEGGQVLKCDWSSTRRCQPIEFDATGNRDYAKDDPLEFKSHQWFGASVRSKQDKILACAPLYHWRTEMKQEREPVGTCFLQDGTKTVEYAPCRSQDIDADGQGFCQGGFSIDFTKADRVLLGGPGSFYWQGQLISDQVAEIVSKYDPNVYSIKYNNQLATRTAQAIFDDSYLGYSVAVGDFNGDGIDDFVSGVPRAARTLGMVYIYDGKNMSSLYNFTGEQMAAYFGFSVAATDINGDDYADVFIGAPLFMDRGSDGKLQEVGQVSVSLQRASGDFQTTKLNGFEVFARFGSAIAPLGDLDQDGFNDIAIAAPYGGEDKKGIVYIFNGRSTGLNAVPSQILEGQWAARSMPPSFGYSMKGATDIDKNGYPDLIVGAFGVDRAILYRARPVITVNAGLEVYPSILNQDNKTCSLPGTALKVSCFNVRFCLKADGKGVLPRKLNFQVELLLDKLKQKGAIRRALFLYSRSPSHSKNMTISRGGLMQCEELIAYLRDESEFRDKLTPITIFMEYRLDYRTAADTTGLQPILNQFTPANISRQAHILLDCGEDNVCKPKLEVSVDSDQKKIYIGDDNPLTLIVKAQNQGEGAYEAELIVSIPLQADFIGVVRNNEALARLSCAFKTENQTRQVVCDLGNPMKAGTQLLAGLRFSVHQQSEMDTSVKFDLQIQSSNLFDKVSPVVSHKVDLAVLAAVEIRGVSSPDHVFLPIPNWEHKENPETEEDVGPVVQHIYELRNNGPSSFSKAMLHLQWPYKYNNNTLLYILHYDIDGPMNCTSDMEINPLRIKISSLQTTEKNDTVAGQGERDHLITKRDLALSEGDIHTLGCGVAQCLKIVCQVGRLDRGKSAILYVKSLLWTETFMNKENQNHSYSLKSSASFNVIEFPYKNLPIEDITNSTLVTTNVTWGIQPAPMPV
T4 chain 2: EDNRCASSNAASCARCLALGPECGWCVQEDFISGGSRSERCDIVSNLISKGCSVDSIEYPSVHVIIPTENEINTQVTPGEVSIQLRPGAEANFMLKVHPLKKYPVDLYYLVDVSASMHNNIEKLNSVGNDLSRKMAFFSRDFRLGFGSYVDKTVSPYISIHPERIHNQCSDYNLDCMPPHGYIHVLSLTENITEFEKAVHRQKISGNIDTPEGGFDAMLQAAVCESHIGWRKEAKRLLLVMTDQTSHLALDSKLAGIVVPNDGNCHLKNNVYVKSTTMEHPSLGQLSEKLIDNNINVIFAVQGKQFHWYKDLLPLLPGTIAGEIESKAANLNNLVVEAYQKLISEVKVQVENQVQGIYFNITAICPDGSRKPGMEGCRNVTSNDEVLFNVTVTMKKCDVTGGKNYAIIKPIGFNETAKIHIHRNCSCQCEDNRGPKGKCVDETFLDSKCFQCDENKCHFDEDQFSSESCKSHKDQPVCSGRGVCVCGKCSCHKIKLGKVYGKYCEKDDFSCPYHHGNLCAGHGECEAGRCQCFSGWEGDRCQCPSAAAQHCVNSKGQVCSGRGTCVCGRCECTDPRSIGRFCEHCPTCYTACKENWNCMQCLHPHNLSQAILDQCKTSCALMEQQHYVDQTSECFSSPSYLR

integrin αIIbβ3 = integrin αIIbβ3 (human, UniProt P08514)
integrin α5β1 = integrin α5β1 (human, UniProt P08648)
Sequence of integrin α5β1 (P08648 42-1049, chain 1 of 2): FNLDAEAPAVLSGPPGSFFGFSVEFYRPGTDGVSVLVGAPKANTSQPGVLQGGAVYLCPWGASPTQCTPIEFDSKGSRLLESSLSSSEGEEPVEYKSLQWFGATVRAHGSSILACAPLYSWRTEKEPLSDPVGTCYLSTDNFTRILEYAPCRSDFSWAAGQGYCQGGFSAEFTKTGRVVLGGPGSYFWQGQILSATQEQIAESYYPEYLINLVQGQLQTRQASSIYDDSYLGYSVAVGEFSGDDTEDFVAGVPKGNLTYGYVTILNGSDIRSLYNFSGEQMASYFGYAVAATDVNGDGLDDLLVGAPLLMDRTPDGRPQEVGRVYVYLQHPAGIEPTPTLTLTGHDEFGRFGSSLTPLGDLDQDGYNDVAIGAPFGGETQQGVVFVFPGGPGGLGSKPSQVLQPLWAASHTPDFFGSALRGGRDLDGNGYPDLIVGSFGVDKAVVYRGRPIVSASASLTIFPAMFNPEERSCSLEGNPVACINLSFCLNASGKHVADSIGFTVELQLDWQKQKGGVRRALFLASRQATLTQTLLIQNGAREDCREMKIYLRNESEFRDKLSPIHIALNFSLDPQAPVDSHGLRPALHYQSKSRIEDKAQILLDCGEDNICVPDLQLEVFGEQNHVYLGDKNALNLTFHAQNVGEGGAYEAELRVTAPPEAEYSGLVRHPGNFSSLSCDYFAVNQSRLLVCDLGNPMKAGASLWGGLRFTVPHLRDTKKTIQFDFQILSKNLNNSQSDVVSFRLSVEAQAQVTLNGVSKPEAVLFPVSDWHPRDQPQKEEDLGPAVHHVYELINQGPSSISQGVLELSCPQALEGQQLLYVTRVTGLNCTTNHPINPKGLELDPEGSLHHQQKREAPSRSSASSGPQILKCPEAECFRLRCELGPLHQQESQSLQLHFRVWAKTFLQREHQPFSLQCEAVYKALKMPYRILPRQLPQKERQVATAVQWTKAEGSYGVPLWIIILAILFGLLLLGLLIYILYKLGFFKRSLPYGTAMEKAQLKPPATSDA
Sequence of integrin α5β1 (chain, as listed by the source, chain 2 of 2): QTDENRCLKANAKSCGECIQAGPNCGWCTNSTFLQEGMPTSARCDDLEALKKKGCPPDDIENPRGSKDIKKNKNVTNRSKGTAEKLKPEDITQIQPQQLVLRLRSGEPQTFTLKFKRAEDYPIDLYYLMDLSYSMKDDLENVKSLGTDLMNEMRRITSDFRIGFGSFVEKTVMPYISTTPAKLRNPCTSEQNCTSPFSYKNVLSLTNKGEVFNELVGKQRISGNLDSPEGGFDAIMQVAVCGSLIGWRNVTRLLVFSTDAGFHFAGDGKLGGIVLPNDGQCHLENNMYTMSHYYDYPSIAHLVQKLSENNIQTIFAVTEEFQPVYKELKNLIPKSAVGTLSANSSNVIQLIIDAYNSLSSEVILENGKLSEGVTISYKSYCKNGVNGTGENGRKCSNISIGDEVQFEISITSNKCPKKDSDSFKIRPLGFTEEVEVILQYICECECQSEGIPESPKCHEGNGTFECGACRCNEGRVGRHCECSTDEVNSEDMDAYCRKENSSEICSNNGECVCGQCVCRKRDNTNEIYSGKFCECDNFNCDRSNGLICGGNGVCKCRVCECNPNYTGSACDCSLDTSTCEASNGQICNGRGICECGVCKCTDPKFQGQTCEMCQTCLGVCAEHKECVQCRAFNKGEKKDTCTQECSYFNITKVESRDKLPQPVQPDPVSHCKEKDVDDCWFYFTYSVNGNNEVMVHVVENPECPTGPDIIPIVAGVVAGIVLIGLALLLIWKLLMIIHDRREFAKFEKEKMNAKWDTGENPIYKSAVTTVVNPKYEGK

IC50 (integrin αvβ6): 201 nM
IC50 (integrin αvβ5): > 1000 nM
IC50 (integrin αvβ3): 423 nM
IC50 (integrin αvβ8): 6 nM
IC50 (integrin αIIbβ3): > 1000 nM
IC50 (integrin α5β1): > 1000 nM
B1: Compound 9 (peptide)
chain: cyclo(RGDL[dP][NMeK](Ac)GL)
